Measured values published in the supplement of paper PMC7877785.
± gives the uncertainty stated by the source.

Test: self-splicing fitness, log relative to wild type (ln ratio); higher = more splicing; Tetrahymena group I intron in knt gene, E. coli kanamycin selection, DiMSum; sequences stand for … in CUCUCU…GGAGGGAAAAGUUAUCAGGCAUGCACCUGGUAGCUAGUCUUUAAACCAAUAGAUUGCAUCGGUUUAAAAGGCAAGACCGUCAAAUUGCGGGAAAGGGGUCAACAGCCGUUCAGUACCAAGUCUCAGGGGAAACUUUGAGAUGGCCUUGCAAAGGGUAUGGUAAUAAGCUGACGGACAUGGUCCUAACCACGCAGCCAAGUCCUAAGUCAACAGAUCUUCUGUUGAUAUGGAUGCAGUUCACAGACUAAAUGUCGGUCGGGGAAGAUGUAUUCUUCUCAUAAGAUAUAGUCGGACCUCUCCUUAAUGGGAGCUAGCGGAUGAAGUGAUGCAACACUGGAGCCGCUGGGAACUAAUUUGUAUGCGAAAGUAUAUUGAUUAGUUUUGGAGUACUCGUGGUCG
Summary of the method: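 The eight P1ex-region nucleotides of an intron in the knt kanamycin-resistance gene on pET-22b(+) were all randomised and the library put into E. coli BL21(DE3). Six replicate transformations were grown overnight at 37°C or 30°C on LB agar with or without 25 μg/mL kanamycin, together with 100 μg/mL carbenicillin, 50 μM IPTG and 0.2% rhamnose. Colonies were pooled and amplicon-sequenced on an Illumina HiSeq 2500. Fitness from DiMSum is the error-weighted combination of wild-type-normalised replicate fold changes, kanamycin over none.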

Sequence	self-splicing fitness (ln) (30 °C)	self-splicing fitness (ln) (37 °C)
UCUUAGCAAUAUUACGCAUA	-2.4 ± 0.26	-1.47 ± 0.22
UCUUAGCAAUAUUACGCGCA	-0.966 ± 0.29	-1.53 ± 0.23
UCUUAGCAAUAUUACGGAUU	-2.71 ± 0.41	-2.22 ± 0.21
UCUUAGCAAUAUUACGGUUG	-3.34 ± 0.32	-2.18 ± 0.43
UCUUAGCAAUAUUACGUAAG	-0.27 ± 0.09	-0.314 ± 0.13
UCUUAGCAAUAUUACGUAUA		-3.28 ± 0.3
UCUUAGCAAUAUUACGUCAA	-2.43 ± 0.25	-2.6 ± 0.44
UCUUAGCAAUAUUACGUGAG	-0.751 ± 0.079	-0.366 ± 0.14
UCUUAGCAAUAUUACGUGCG	-2.14 ± 0.15	-1.67 ± 0.2
UCUUAGCAAUAUUACGUUGU	-3.61 ± 0.19	-1.24 ± 0.14
UCUUAGCAAUAUUACGUUUA	-2.75 ± 0.33	-2.57 ± 0.32
UCUUAGCAAUAUUACGUUUU		-1.8 ± 0.23
UGAAAGCAAUAUUACGACUG	0.192 ± 0.1	0.249 ± 0.12
UGAAAGCAAUAUUACGAGCU	-1.42 ± 0.14	-0.746 ± 0.17
UGAAAGCAAUAUUACGAGUG	-0.522 ± 0.069	0.0623 ± 0.11
UGAAAGCAAUAUUACGAUCU	-0.256 ± 0.083	0.425 ± 0.11
UGAAAGCAAUAUUACGAUUA	-0.302 ± 0.065	0.211 ± 0.096
UGAAAGCAAUAUUACGCAAG	-2.4 ± 0.15	-2 ± 0.2
UGAAAGCAAUAUUACGCACA	-0.903 ± 0.15	0.683 ± 0.15
UGAAAGCAAUAUUACGCCAG	-0.985 ± 0.12	-0.807 ± 0.12
UGAAAGCAAUAUUACGCCGU	-2.92 ± 0.29	-1 ± 0.16
UGAAAGCAAUAUUACGCCUC	-1.85 ± 0.28	
UGAAAGCAAUAUUACGCGAU	-2.15 ± 0.14	-2.37 ± 0.19
UGAAAGCAAUAUUACGCUAA	-1 ± 0.12	-0.805 ± 0.13
UGAAAGCAAUAUUACGCUAG	-1.59 ± 0.15	0.503 ± 0.15

Sequence	self-splicing fitness (ln) (30 °C)	self-splicing fitness (ln) (37 °C)
UGAAAGCAAUAUUACGGCAU	-1.43 ± 0.076	-0.236 ± 0.1
UGAAAGCAAUAUUACGGGUU	-4.06 ± 0.27	-2.06 ± 0.19
UGAAAGCAAUAUUACGGUAA	-1.02 ± 0.085	-0.765 ± 0.078
UGAAAGCAAUAUUACGUAGA	-1.88 ± 0.097	-1.56 ± 0.15
UGAAAGCAAUAUUACGUAGG	-0.728 ± 0.095	-0.459 ± 0.14
UGAAAGCAAUAUUACGUUCC	-1.36 ± 0.11	-0.98 ± 0.13
UGACAGCAAUAUUACGAAUA	-1.26 ± 0.13	-0.589 ± 0.14
UGACAGCAAUAUUACGACAC	-0.678 ± 0.12	-2.04 ± 0.17
UGACAGCAAUAUUACGACCC	-1.52 ± 0.2	-1.01 ± 0.25
UGACAGCAAUAUUACGACGA	-0.0144 ± 0.099	0.355 ± 0.13
UGACAGCAAUAUUACGAGAU	-3.55 ± 0.23	-2.86 ± 0.26
UGACAGCAAUAUUACGAGCC	-3.37 ± 0.28	-2.24 ± 0.38
UGACAGCAAUAUUACGAUGA	-0.596 ± 0.068	-0.119 ± 0.082
UGACAGCAAUAUUACGCUAA	-1.22 ± 0.086	-0.325 ± 0.093
UGACAGCAAUAUUACGCUAG	-1.37 ± 0.076	-0.358 ± 0.11
UGACAGCAAUAUUACGCUCA	-0.115 ± 0.11	-0.155 ± 0.1
UGACAGCAAUAUUACGCUUG	-0.879 ± 0.074	-0.702 ± 0.11
UGACAGCAAUAUUACGGAGC	-4.35 ± 0.39	-2.91 ± 0.19
UGACAGCAAUAUUACGGAUG	-0.91 ± 0.054	-0.91 ± 0.075
UGACAGCAAUAUUACGGCCG	-0.739 ± 0.14	0.186 ± 0.19
UGACAGCAAUAUUACGGCGG	-0.935 ± 0.053	0.0557 ± 0.072
UGACAGCAAUAUUACGGUCG	-3.56 ± 0.26	-1.58 ± 0.21
UGACAGCAAUAUUACGGUGC	-2.01 ± 0.49	
UGACAGCAAUAUUACGGUGG	-1.56 ± 0.064	-0.331 ± 0.082
UGACAGCAAUAUUACGGUUU	-1.07 ± 0.059	-0.226 ± 0.073

Sequence	self-splicing fitness (ln) (30 °C)	self-splicing fitness (ln) (37 °C)
UGACAGCAAUAUUACGUAGG	-1.78 ± 0.079	-1.31 ± 0.11
UGACAGCAAUAUUACGUCGG	-1.72 ± 0.094	-0.734 ± 0.11
UGACAGCAAUAUUACGUGGG	-3.76 ± 0.14	-0.757 ± 0.081
UGACAGCAAUAUUACGUUGA	-1.99 ± 0.094	-1.9 ± 0.12
UGAGAGCAAUAUUACGAACG	-1.02 ± 0.18	-1.43 ± 0.33
UGAGAGCAAUAUUACGAAUA	-2.76 ± 0.49	
UGAGAGCAAUAUUACGAUAC	-3.92 ± 0.46	-1.91 ± 0.34
UGAGAGCAAUAUUACGAUGC	-2.13 ± 0.39	-0.477 ± 0.45
UGAGAGCAAUAUUACGCCAC	-2.36 ± 0.31	-1.1 ± 0.42
UGAGAGCAAUAUUACGCCGC	-3.41 ± 0.23	-2.5 ± 0.31
UGAGAGCAAUAUUACGCGUC	-2.95 ± 0.38	-1.37 ± 0.41
UGAGAGCAAUAUUACGGAUG	-3.61 ± 0.19	-3.56 ± 0.29
UGAGAGCAAUAUUACGGCAG		-1.58 ± 0.31
UGAGAGCAAUAUUACGGCUG	-1.5 ± 0.15	-0.389 ± 0.26
UGAGAGCAAUAUUACGGGGU		-2.4 ± 0.48
UGAGAGCAAUAUUACGGUUG	-2.6 ± 0.12	-2.64 ± 0.19
UGAGAGCAAUAUUACGUAUC	-0.611 ± 0.42	-0.408 ± 0.47
UGAGAGCAAUAUUACGUCAC	-2.08 ± 0.4	
UGAGAGCAAUAUUACGUGCU	-2.06 ± 0.21	
UGAGAGCAAUAUUACGUUGA		-2.55 ± 0.24
UGAGAGCAAUAUUACGUUGG		-3 ± 0.27
UGAUAGCAAUAUUACGAGUU	-3.82 ± 0.24	-2.73 ± 0.21
UGAUAGCAAUAUUACGAUCC	-0.554 ± 0.12	0.433 ± 0.15
UGAUAGCAAUAUUACGAUUC	-2.33 ± 0.24	-2.41 ± 0.49
UGAUAGCAAUAUUACGCAUG	-1.23 ± 0.078	-0.48 ± 0.1

Sequence	self-splicing fitness (ln) (30 °C)	self-splicing fitness (ln) (37 °C)
UGAUAGCAAUAUUACGCCUU	-3.11 ± 0.31	-1.32 ± 0.2
UGAUAGCAAUAUUACGCGAA	-2.64 ± 0.44	-1.49 ± 0.26
UGAUAGCAAUAUUACGCUCC		-0.916 ± 0.3
UGAUAGCAAUAUUACGCUGU	-2.61 ± 0.27	-3.08 ± 0.38
UGAUAGCAAUAUUACGCUUU	-3.56 ± 0.47	-1.39 ± 0.15
UGAUAGCAAUAUUACGGACU	-1.17 ± 0.099	0.214 ± 0.18
UGAUAGCAAUAUUACGGAGC	-3.26 ± 0.24	-3.25 ± 0.47
UGAUAGCAAUAUUACGGAGG	-2.79 ± 0.26	-1.56 ± 0.36
UGAUAGCAAUAUUACGGAUU	-2.78 ± 0.23	-0.278 ± 0.19
UGAUAGCAAUAUUACGGCGC	-2.62 ± 0.22	-1.18 ± 0.23
UGAUAGCAAUAUUACGGUGG	-2.08 ± 0.15	-1.53 ± 0.25
UGAUAGCAAUAUUACGUAGU	-4.18 ± 0.31	-2.38 ± 0.28
UGAUAGCAAUAUUACGUCAG	-1.84 ± 0.1	-1.03 ± 0.12
UGAUAGCAAUAUUACGUCCG	-0.219 ± 0.11	-0.0349 ± 0.13
UGAUAGCAAUAUUACGUCGU	-2.06 ± 0.34	-2.02 ± 0.35
UGAUAGCAAUAUUACGUUCU	-1.68 ± 0.11	0.264 ± 0.11
UGCAAGCAAUAUUACGAUCA	0.00924 ± 0.069	0.117 ± 0.077
UGCAAGCAAUAUUACGAUUG	-1.93 ± 0.14	-1.55 ± 0.12
UGCAAGCAAUAUUACGCCCU	-0.189 ± 0.15	0.448 ± 0.14
UGCAAGCAAUAUUACGCCUG	-2.3 ± 0.13	-2.5 ± 0.25
UGCAAGCAAUAUUACGCGCC	-1.18 ± 0.098	-0.427 ± 0.11
UGCAAGCAAUAUUACGCGUC	-1.63 ± 0.18	-2.93 ± 0.26
UGCAAGCAAUAUUACGCUAU	-2.7 ± 0.088	-1.49 ± 0.088
UGCAAGCAAUAUUACGCUCU	-0.965 ± 0.12	-0.235 ± 0.13
